Source: patent publication US20250195685A1 (CAPSTAN THERAPEUTICS, published 2025)

How the values were obtained:
[1] = target: T1, cynomolgus macaque CD8αα homodimer, recombinant protein (cynomolgus macaque); assay: BLI kinetics, Fab, 37 °C as printed in the table
T1 construct: also called cynomolgus CD8αα homodimer
Description: (§1) Biolayer interferometry kinetic assays were performed using a GatorBio Gator Plus BLI system. Kinetic buffer containing PBS plus 0.1% Tween 20 and 0.2% BSA was used for calculating the baseline. To measure the binding kinetics of anti-CD8α antibody fragment (Fab), streptavidin-immobilized SA-XT sensors (#160029, Gator Bio) were prehydrated in the kinetic buffer and loaded with […] biotinylated CD8α recombinant protein (CDA-H82E3, Acro Biosystems) at a spin speed of 400 rpm to a threshold response of 10 nm. The sensors were then incubated in the kinetic buffer for 300 s to acquire a baseline measurement prior to each association. […] The antigen-loaded sensors were incubated in the diluted solutions to capture Fab fragments for 300 s to record the association phase. Sensors were finally incubated in the kinetic buffer for 900 s to record the dissociation phase. The spin speed for all steps except the antigen loading step was 1000 rpm. The temperature of the performed assays was either 30° C. or 37° C. during the association and dissociation phases. Sensor data were baseline subtracted, and global curve fitting of the kinetic data from six different analyte concentrations at a 1:1 monovalent binding model was performed using GatorOne software (version v2.10) to determine kinetic rate constants (kₒₙ and koff) and equilibrium dissociation constants (KD) of the analyzed antibodies.
(§2) The binding kinetics of CBD1033 Fab and its parental CBD1017ch Fab against human CD8αα homodimer, human CD8αβ heterodimer, and cynomolgus macaque CD8ααhomodimer were assessed following the same method in BLI evaluation of humanized Fab variants. For evaluating the binding kinetics against cynomolgus macaque CD8αβ heterodimer protein, the antigen protein was directly coupled onto amine-reactive biosensor tips (Gator Bio) following the manufacturer protocol. Briefly, the sensors were activated for 300 s with a mixture of 1-ethyl-3-(3-dimethylaminopropyl)carbodiimide hydrochloride (EDC) (ThermoFisher Scientific) and 10 mM N-Hydroxysulfosuccinimide sodium salt (sulfo-NHS) (Sigma-Aldrich) in water.

[2] = target: T2, cynomolgus macaque CD8αβ heterodimer, recombinant protein (cynomolgus macaque); assay: BLI kinetics, Fab, antigen amine-coupled to the sensor, 30 °C
T2 construct: In BLI coupled directly to amine-reactive sensor tips; also called cynomolgus CD8αβ heterodimer
Description: The binding kinetics of CBD1033 Fab and its parental CBD1017ch Fab against human CD8αα homodimer, human CD8αβ heterodimer, and cynomolgus macaque CD8ααhomodimer were assessed following the same method in BLI evaluation of humanized Fab variants. For evaluating the binding kinetics against cynomolgus macaque CD8αβ heterodimer protein, the antigen protein was directly coupled onto amine-reactive biosensor tips (Gator Bio) following the manufacturer protocol. Briefly, the sensors were activated for 300 s with a mixture of 1-ethyl-3-(3-dimethylaminopropyl)carbodiimide hydrochloride (EDC) (ThermoFisher Scientific) and 10 mM N-Hydroxysulfosuccinimide sodium salt (sulfo-NHS) (Sigma-Aldrich) in water. The cynomolgus macaque CD8αβ protein diluted to […] in 10 mM sodium acetate buffer, pH 6.0, was allowed to be covalently captured for 300 s to an approximate threshold of 5 nm, and the sensors were subsequently deactivated with 1 M ethanolamine (ETA) (Sigma-Aldrich) solution, pH 8.5, for 300 s. The sensors were then rinsed in the kinetic buffer for 600 s. The rinse step was repeated for an additional 120 s for baseline calculation prior to the measurements of the binding kinetics. The antibody fragment was diluted into kinetic buffer via 3-fold dilution at concentrations ranging from 1000 nM to 1.37 nM. As above, the antigen-captured sensors were incubated in the diluted solutions to capture the Fab fragments for 1200 s to record the association phase. Sensors were subsequently incubated in the kinetic buffer for 1200 s to record the dissociation phase. The shaking speed for all steps was 1000 rpm and the temperature of the performed assays were at 30° C. The kinetic parameters were determined with 1:1 monovalent (Langmuir) binding model using the previous method.

[3] = target: T3, human CD8αα homodimer, recombinant protein (Acro Biosystems) (human, UniProt P01732 22-182); assay: BLI kinetics, F(ab) on biotinylated CD8α (SA-XT sensor), 1:1 fit, 30 °C
T3 construct: also called CD8αα antigen; biotinylated CD8α recombinant protein (CDA-H82E3)
T3 sequence (P01732 22-182 limits assumed): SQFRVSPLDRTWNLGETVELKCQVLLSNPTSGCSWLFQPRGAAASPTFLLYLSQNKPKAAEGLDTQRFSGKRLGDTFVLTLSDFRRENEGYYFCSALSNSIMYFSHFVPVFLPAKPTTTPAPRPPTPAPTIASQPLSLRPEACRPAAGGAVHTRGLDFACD
Description: as §1

[4] = target: T3, human CD8αα homodimer, recombinant …; assay: BLI kinetics, F(ab) on biotinylated CD8α (SA-XT sensor), 1:1 fit, 37 °C [CONT'ED]
Description: as §1

[5] = target: T1, cynomolgus macaque CD8αα homodimer, …; assay: BLI kinetic sensorgram, 1:1 global fit (legend: 30 °C; FIG. 2I prints 37 °C for the same constants)
Description: as §1, §2

[6] = target: T3, human CD8αα homodimer, recombinant …; assay: BLI kinetics, Fab, 37 °C
Description: as §1, §2

[7] = target: human CD8αβ heterodimer, recombinant protein (human, UniProt P01732 22-182; P10966 22-170, limits assumed); assay: BLI kinetics, Fab, 37 °C
Sequence of human CD8αβ heterodimer, recombinant protein (P01732 22-182 limits assumed, chain 1 of 2): as the sequence (P01732 22-182 limits assumed) above
Sequence of human CD8αβ heterodimer, recombinant protein (P10966 22-170 limits assumed, chain 2 of 2): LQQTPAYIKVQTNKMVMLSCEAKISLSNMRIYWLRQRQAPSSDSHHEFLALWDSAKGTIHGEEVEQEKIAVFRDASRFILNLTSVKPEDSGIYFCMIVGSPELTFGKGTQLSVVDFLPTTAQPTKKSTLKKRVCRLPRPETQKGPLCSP
Description: as §1, §2

[8] = target: T4, human CD8 on cells (CD8-overexpressing HEK293T cells, SupT1, HPB-ALL, human T cells, transfected HEK293 of … (human, UniProt P01732 22-235)); assay: flow cytometry on CD8-overexpressing HEK293T cells, non-linear fit of normalized gMFI
T4 construct: whole, on cells; also called cell surface CD8
T4 sequence (P01732 22-235): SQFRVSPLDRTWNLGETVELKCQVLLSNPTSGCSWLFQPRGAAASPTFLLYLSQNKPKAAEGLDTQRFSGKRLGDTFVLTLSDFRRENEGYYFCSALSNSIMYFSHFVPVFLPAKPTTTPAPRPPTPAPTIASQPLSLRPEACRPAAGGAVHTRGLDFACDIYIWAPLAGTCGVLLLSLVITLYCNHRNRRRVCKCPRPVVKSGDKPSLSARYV
Description: To obtain the results shown in FIG. 3A, that determined EC₅₀ values for antigen-specific binding, CD8-overexpressing HEK293T cells were dissociated in Versine solution (PBS buffer at pH 7.4 supplemented with 0.5 mM EDTA), and 2×10⁵ total cells were transferred to a V-bottom 96 well culture plate (Corning). Cells were washed twice with Cell Staining buffer (#420201, Biolegend). Each anti-CD8α antibody with human IgG1 isotype and Fc-silencing mutations L234A, L235A and P329A was diluted in four-fold antibody titration series from 100 μg/mL to 6.1 ng/ml into Cell Staining buffer. eFluor 780 Fixable Viability dye (eBioscience) was also included during antibody solutions at a 1:4000 dilution. Cells were stained with each diluted antibody solution for 30 minutes on ice. Cells were then washed three times with Cell Staining buffer and primary antibody binding was detected by staining with anti-human Fc BV421 conjugate antibody (#410704, Biolegend) at 1:100 dilution for 30 minutes on ice. After staining with the secondary detection antibody, cells were washed three times with Cell Staining buffer, fixed in FluoroFix buffer (Biolegend) and kept at 4° C. in the dark until analysis. Flow cytometry analysis on each sample was performed on an Agilent NovoCyte flow cytometer. Flow cytometry data was analyzed by Flowjo 10 (Becton, Dickinson & Company) to measure the geometric median fluorescence intensity (gMFI) of the on-cell binding from each antibody. The gMFI values were normalized with the gMFI measured in the sample stained with only the secondary detection antibody and plotted against the concentration of the added antibodies. The binding curves were constructed using the Graphpad Prism software, and EC₅₀ values were determined by non-linear curve fitting.

[9] = target: T3, human CD8αα homodimer, recombinant …; assay: BLI steady state, whole hIgG1-LALAPA antibody on CD8α-His (Ni-NTA sensor), 30 °C
Description: (§3) To assess affinity of whole antibodies, steady state analysis was used as the bivalent nature of both whole antibody and CD8α complicates kinetic analysis. 50 nM CD8α-His (that is, CD8α with a C-terminal oligohistidine tag; Acro) was immobilized on Ni-NTA sensor probes. Binding was analyzed with a three-fold antibody dilutions series: 60 nM, 20 nM, 6.67 nM, 2.22 nM, 0.74 nM, and 0.25 nM. The antigen-loaded sensors were incubated in the diluted solutions to capture the whole IgG antibody for 300 s to record the association phase. Sensors were incubated in the kinetic buffer for 900 s to record the dissociation phase. The spin speed was 1000 rpm for all steps except the antigen loading step which was 400 rpm to control density of the antigen. The temperature of the performed assays was at 30° C. during the association and dissociation phases. The sensor data were baseline subtracted and further analyzed in GatorOne software (version 2.10) to determine the equilibrium dissociation constants (KD) of the antibodies by fitting the signals of the steady states to the 1:1 binding model.

[10] = target: T3, human CD8αα homodimer, recombinant …; assay: as above; remark: listed apart in the source
Description: as §3

B1: CBD1017ch Fab (chimeric CT8 Fab) (Fab, V domains shown)
VH: EVQLQQSGPELVKPGASVKISCKASRYTFTDYNLHWVKLSHEKSLEWIGFIYPYNGGTGYNQKFKNKAKLTVDYSSSTAYMELRSLTSVDAAVYYCARDHRYNEGVSFDYWGQGTTLTVSS
VL: NIVLTQSPASLAVSLGQRATISCRASESVDGFGNSFMNWYQQKPGQSPKLLIYLASNLESGVPARFSGSGSRTDFTLTIDPVEADDAATYYCQQNNEDPYTFGGGTKLEIK
notes: Chimeric: variable regions of mouse CT8 (clone RPA-T8) with human constant parts; also called parental CBD1017ch Fab
Binder B1 has a Kd [1] of 2.26 nM, a koff [1] of 6.93e-05 s⁻¹ and a kon [1] of 30700 M⁻¹ s⁻¹. For the same binder, the Kd [2] was 24.8 nM, the koff [2] was 0.000503 s⁻¹ and the kon [2] was 20300 M⁻¹ s⁻¹. The Kd [3] was 0.814 nM, the koff [3] was 5.67e-05 s⁻¹ and the kon [3] was 69700 M⁻¹ s⁻¹. It also gave a Kd [4] of 1.08 nM, a koff [4] of 7.53e-05 s⁻¹ and a kon [4] of 69500 M⁻¹ s⁻¹. The Kd [5] was 2.26 nM, the koff [5] was 6.93e-05 s⁻¹ and the kon [5] was 30700 M⁻¹ s⁻¹. The Kd [6] was 1.08 nM, the koff [6] was 7.53e-05 s⁻¹ and the kon [6] was 69500 M⁻¹ s⁻¹. For the same binder, the Kd [7] was 5.75 nM, the koff [7] was 0.000179 s⁻¹ and the kon [7] was 31200 M⁻¹ s⁻¹.

B2: CBD1036-hIgG1-LALAPA (antibody, V domains shown)
VH: QVQLVQSGAEVKKPGASVKISCKASRYTFTDYNLHWVRQAPGQGLEWIGFIYPYNGGTGYAQKFQGRATLTVDTSTSTAYMELSSLRSEDTAVYYCARDHRYNEGVSFDYWGQGTTLTVSS
VL: DIQLTQSPSSLSASVGDRATITCRASESVDGFGNSFMNWYQQKPGKAPKLLIYLASNLESGVPSRFSGSGSRTDFTLTISSVQPEDFATYYCQQNNEDPYTFGQGTKLEIKR
notes: also called h1017-H3/L3 whole antibody
With B2 the EC50 [8] was 2.69 nM and the Kd [9] was 5.15 nM.

B3: CBD1050 (antibody, human IgG1, kappa, L234A L235A, V domains shown)
VH: QVQLVQSGAEVKKPGASVKVSCKASRYTFTDYNLHWVRQAPGQGLEWIGFIYPYNGGTGYAQKFQGRVTLTVDYSTSTAYMELSSLRSEDTAVYYCARDHRYNEGVSFDYWGQGTLVTVSS
VL: EIVLTQSPGTLSLSPGERATLSCRASESVDGFGNSFMNWYQQKPGQAPRLLIYLASNLESGVPARFSGSGSRTDFTLTISRLEPEDFAVYYCQQNNEDPYTFGQGTKVEIKR
notes: also called h1017-H10/L6 whole antibody hIgG1-LALAPA
B3 gave a Kd [10] of 6.41 nM.

B4: CBD1038-hIgG1-LALAPA (antibody, V domains shown)
VH: QVQLVQSGAEVKKPGASVKVSCKASRYTFTDYNLHWVRQAPGQGLEWMGFIYPYNGGTGYAQKFQGRVTMTVDYSTSTAYMELSSLRSEDTAVYYCARDHRYNEGVSFDYWGQGTTVTVSS
VL: DIQLTQSPSSLSASVGDRATITCRASESVDGFGNSFMNWYQQKPGKAPKLLIYLASNLESGVPSRFSGSGSRTDFTLTISSVQPEDFATYYCQQNNEDPYTFGQGTKLEIKR
notes: also called h1017-H4/L3 whole antibody
B4 gave an EC50 [8] of 2.57 nM and a Kd [9] of 4.74 nM.

B5: CBD1049 (antibody, human IgG1, kappa, L234A L235A, V domains shown)
VH: QVQLVQSGAEVKKPGASVKVSCKASRYTFTDYNLHWVRQAPGQGLEWIGFIYPYNGGTGYAQKFQGRVTLTVDYSTSTAYMELSSLRSEDTAVYYCARDHRYNEGVSFDYWGQGTLVTVSS
VL: EIVLTQSPGTLSLSPGERATLSCRASESVDGFGNSFMNWYQQKPGQAPRLLIYLASNLESGVPARFSGSGSGTDFTLTISRLEPEDFAVYYCQQNNEDPYTFGQGTKVEIKR
notes: also called h1017-H10/L5 whole antibody hIgG1-LALAPA
For B5, the Kd [10] was 3 nM.

B6: CBD1037-hIgG1-LALAPA (antibody, V domains shown)
VH: QVQLVQSGAEVKKPGASVKVSCKASRYTFTDYNLHWVRQAPGQGLEWMGFIYPYNGGTGYAQKFQGRVTMTVDYSTSTAYMELSSLRSEDTAVYYCARDHRYNEGVSFDYWGQGTTVTVSS
VL: DIQLTQSPSSLSASVGDRATITCRASESVDGFGNSFMNWYQQKPGKAPKLLIYLASNLESGVPSRFSGSGSGTDFTLTISSVQPEDFATYYCQQNNEDPYTFGQGTKLEIKR
notes: also called h1017-H4/L2 whole antibody
With B6 the EC50 [8] was 2.42 nM and the Kd [9] was 2.32 nM.
